Data: patent US20220242963A1, “B-CELL ACTIVATING CD73 ANTIBODIES” (CORVUS PHARMACEUTICALS, INC., priority 2018, published 2022)

Assays:
CD73 [1] = molecular target: T1, CD73 (Homo sapiens, UniProt P21589); assay: Occupancy and inhibition of CD73 in a tumor biopsy of a treated colorectal cancer patient; format: in vivo; conditions: 12 mg/kg, retroperitoneal lesion at trough pre-dose 3, FIG. 5
T1 construct: endogenous in cells; host or cells: Whole blood of cancer patients (CD73+ CD8 T cells)
T1 sequence (P21589 27-549): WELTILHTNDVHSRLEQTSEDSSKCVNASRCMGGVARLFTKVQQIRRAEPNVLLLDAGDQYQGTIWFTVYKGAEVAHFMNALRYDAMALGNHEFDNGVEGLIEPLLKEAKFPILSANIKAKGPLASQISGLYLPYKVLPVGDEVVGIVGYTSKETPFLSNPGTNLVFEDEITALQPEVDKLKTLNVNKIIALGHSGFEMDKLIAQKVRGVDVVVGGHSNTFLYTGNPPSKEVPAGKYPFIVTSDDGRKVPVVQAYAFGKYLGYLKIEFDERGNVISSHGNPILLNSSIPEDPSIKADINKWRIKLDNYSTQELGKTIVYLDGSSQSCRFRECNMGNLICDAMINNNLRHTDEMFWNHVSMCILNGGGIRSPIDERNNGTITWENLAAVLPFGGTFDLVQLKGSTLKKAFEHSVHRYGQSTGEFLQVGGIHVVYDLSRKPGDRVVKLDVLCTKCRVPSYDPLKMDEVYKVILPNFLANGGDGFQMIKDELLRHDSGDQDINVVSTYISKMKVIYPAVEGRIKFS
Method: The tumor biopsy was of a retroperitoneal lesion obtained at trough pre-dose 3.
A tumor biopsy taken from a colorectal cancer patient treated with CPI-006 was evaluated for inhibition of CD73 enzymatic activity.

CD73 [2] = molecular target: T1, CD73; assay: CD73 catalytic activity in MDA-MB-231 cells (phosphate, Sensolyte Malachite Green); format: cell-based; conditions: 250 μM AMP, FIG. 1B
Method: FIG. 1A provides a schematic of CD73 structure. […] Each symbol represents an independent donor.
MDA-MB-231 cells (e.g., available at ATCC® as HTB-26™) were incubated with a human IgG1 isotype control, CPI-006, CPX-016, or adenosine 5′-(α,β-methylene)diphosphate (also known as APCP, which is a small molecule inhibitor of CD73 enzymatic activity), prior to addition of 250 μM of adenosine monophosphate (AMP). Phosphate levels were measured in the cell culture supernatant using the Sensolyte Malachite Green assay kit. Peripheral blood mononuclear cells (PBMC) were isolated from healthy donors and labeled with CellTrace™ Violet (ThermoFisher Scientific) prior to culture with 1 μg/mL anti-CD3 and anti-CD28, 200 units/mL IL-2, 3 mM AMP and indicated treatments (CPI-006 at 500 nM; CPX-016 at 500 nM; human IgG1 isotype control at 890 nM). T cell proliferation was measured by Cell Trace Violet dilution and was defined by gating relative to unstimulated PBMC (FIG. 1C). IFN-gamma production was measured in cell culture supernatants by AlphaLISA (FIG. 1D). Results shown in FIGS. 1B-D illustrate that inhibition of CD73 activity has an agonistic effect on immunomodulatory activity.

T cell clones = assay: T cell receptor Vb sequencing of peripheral blood (T cell clone frequency); format: in vivo, human
Method: FIGS. 11A-11C show clonal abundance plots of T cell clones for three patients treated with CP1-006. Sequencing of the Vb region of the T cell receptor was performed to identify the frequency of unique T cell clones in peripheral blood samples collected pre-treatment and on-treatment at 6 weeks of 12 mg/kg CPI-006+ciforadenant (FIG. 11A), 12 mg/kg CPI-006 (FIG. 11B), or 18 mg/kg CPI-006 (FIG. 11C). Expansion of new T cell clones was observed after 6 weeks in 3 of 8 evaluated patients treated with CPI-006.
Immunomodulatory activity of CPI-006 was evaluated in patients administered CPI-006. […] Further, T cell activation was evaluated upon treatment with various dosages of the monotherapy CPI-006 or a combination therapy of CPI-006 and ciforadenant. Once a T cell clone is activated, the clone can expand and produce clonal copies of the original clone. […] The results further affirm CPI-006 is an immunomodulator of CD73 positive cells.

[3] = Phase 1/1B clinical trial: adverse events, tolerability; format: in vivo, human
Source text: The primary objectives of the study were to show safety and tolerability of the active agents, and the second objectives of the study were to identify PK/PD profiles, drug efficacy, and biomarkers. […] The adenosine gene signature was not used to select patients. The dose expansion includes treatment of non-small cell lung cancer, renal cell carcinoma, non-Hodgkin's lymphoma, and other types of cancers (e.g., bladder, prostate, pancreatic, colorectal, squamous cell cancer of the head and neck). CPI-006 was given as a one hour infusion every three weeks, and for the combination treatments 100 mg po BID of ciforadenant was administered. Biomarker assessment was conducted for the effects of CD73 expression in tumors, peripheral blood lymphocyte subsets, antibody occupancy of target, and serum cytokines.
The baseline demographics of the patients are shown in Table 2 below, and the adverse events are shown in Table 3 (where TEAE refers to treatment-related adverse events based on any grade 3 or 4 events, or 2 or more of all grades).

[4] = cancer patients, monotherapy n = 12, combination n = 8

occupancy of CD73 in tumor biopsy (CD73 [1]): binds and saturates CD73
B1: CPI-006: humanized CD73 antibody, wherein the light chain is SEQ ID NO:8 and the heavy chain is SEQ ID NO:7; IgG1 Fcγ receptor-deficient (antibody, V domains shown)
VH: QVQLVQSGAEVEKPGASVKVSCKASGYTFTSYWITWVRQAPGQGLEWMGDIYPGSGNTNYNEKFKTRVTITADKSTSTAYMELSSLRSEDTAVYYCAKEGGLTTEDYALDYWGQGTLVTV
VL: EIVLTQSPATLSLSPGERATLSCRASKNVSTSGYSYMHWYQQKPGQAPRLLIYLASNLESGIPPRFSGSGYGTDFTLTINNIESEDAAYYFCQHSRELPFTFGQGTKVEIK
CD73 enzymatic activity in tumor biopsy (CD73 [1]): inhibit CD73 enzymatic activity
adenosine production (CD73 catalytic activity) (CD73 [2]): blocks adenosine production
generation of new T cell clones (T cell clones; 12 or 18 mg/kg CPI-006, or 12 mg/kg CPI-006 + ciforadenant, 6 weeks, FIGS. 11A-11C): new T cell clones were generated
evaluated patients with expansion of new T cell clones (T cell clones; after 6 weeks of treatment, peripheral blood): 3 of 8
Adverse Events Number of Patients: Anemia, All Grades [3, 4]: 1
Adverse Events Number of Patients: Anemia, Grade 3 or 4 [3, 4]: 1
Adverse Events Number of Patients: Chills, All Grades [3, 4]: 4
Adverse Events Number of Patients: Chills, Grade 3 or 4 [3, 4]: 0
Adverse Events Number of Patients: Diarrhea, All Grades [3, 4]: 1
Adverse Events Number of Patients: Diarrhea, Grade 3 or 4 [3, 4]: 0
Adverse Events Number of Patients: Fatigue, All Grades [3, 4]: 2
Adverse Events Number of Patients: Fatigue, Grade 3 or 4 [3, 4]: 0
Adverse Events Number of Patients: Headache, All Grades [3, 4]: 2
Adverse Events Number of Patients: Headache, Grade 3 or 4 [3, 4]: 0
Adverse Events Number of Patients: Infusion-related reaction, All Grades [3, 4]: 2
Adverse Events Number of Patients: Infusion-related reaction, Grade 3 or 4 [3, 4]: 0
Adverse Events Number of Patients: Nausea, All Grades [3, 4]: 3
Adverse Events Number of Patients: Nausea, Grade 3 or 4 [3, 4]: 0
Adverse Events Number of Patients: Pruritus, All Grades [3, 4]: 2
Adverse Events Number of Patients: Pruritus, Grade 3 or 4 [3, 4]: 0
Adverse Events Number of Patients: Subjects with any TEAE, All Grades [3, 4]: 8
Adverse Events Number of Patients: Subjects with any TEAE, Grade 3 or 4 [3, 4]: 1
dose-limiting toxicity ([3]; doses of 1, 3, and 6 mg/kg): no dose-limiting toxicity
tolerability ([3]; doses of 1, 3, and 6 mg/kg): well tolerated
grade 3/4 adverse events ([3]; patients of Table 4, CPI-006 monotherapy 1, 3, 6 mg/kg): No grade 3/4 adverse events were reported
